The nanobody polyreactivity screen of Harvey et al. (2022)

Experiment: yeast display, Sf9 membrane polyspecificity reagent, FACS + sequencing; frameworks hold sequencing errors
Method in brief: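 Polyreactivity labels are assigned by the sorting gate from which each nanobody was recovered. The gates were low and high (top ~1%), set on anti-HA fluorescence for expression and streptavidin fluorescence for reagent binding. Before sorting, galactose-induced (36–48 hours) yeast display cells were stained for 1 hour at 4 °C with 10% biotinylated, detergent-solubilized Sf9 membrane reagent.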

| Sequence | polyreactivity (PSR sort gate) |
| --- | --- |
| QVQLVESGGGLVQAGGSLRLSCAASGSTFVINAMGWYRQAPGKERELVAAISFSGDTTYYADSVKGRFTISRDNAKNTVYLQMNSLKPEDTAVYYCAASVTVGISKYGYWGQGTQVTVSS | high polyreactivity |
| QVQLVESGGGLVQAGGSLRLSCAASGSTFVINAMGWYRQAPGKERELVAAISYSGDSTYADSVKGRFTISRDNEKNTVYLQMNSLKPEDTAVYYCAKYQYDYYTYDYWGQGTQVTVSS | low polyreactivity |
| QVQLVESGGGLVQAGGSLRLSCAASGSTFVINAMGWYRQAPGKERELVADIDYRGGSTNYADSVKGRFTISRDNAKNTVYLLMNSLKPEDTAVYYCNKRYVIRRRGYDYWGQGTQVTVSS | low polyreactivity |
| QVQLVESGGGLVQAGGSLRLSCAASGSTFVINDMGWYRQAPGKERELVAAITWGSGSTYYADSVKGRFTISRDNAKNTVYLQMNSLKPEDTAVYYCAADVYFGLVGYYAEYNDYWGQGTQVNVSS | low polyreactivity |
| QVQLVESGGGLVQAGGSLRLSCAASGSTFVIYAMGWYRQAPGKERELVAAIRLGGGSTYYADSVKGRFTISRDNANNTVYLQMNSLKPEDTAVYYCAAEVDQWYYRGYDYWGQGTQVTVSS | high polyreactivity |
| QVQLVESGGGLVQAGGSLRLSCAASGSTFVIYAMGWYRQAPGKERELVAAITISGGRTYYADSVKGRFTISRDNAKNTVYLQMNSLKPEDTAVYYCAATVVSTYPYGYGSTFVRDDYWGQGTQVTVSS | low polyreactivity |
| QVQLVESGGGLVQAGGSLRLSCAASGSTFVIYGMGLYRQEPGKESDIVADITWIGGSTYYADSVKGRFTISRDNAKNTVYLQMKSLKPEDTAVYYCAADAAYLYLYNWYDTEDYYWGQGTLVTVSS | low polyreactivity |
| QVQLVESGGGLVQAGGSLRLSCAASGSTFVIYGMGWYRQAPGTERELVADITWIGGSTYYADSVKGRFTISRDNAKNTVYLQMNSLKPEDTAVYYCNADVRYGRDHWGQGTQVTVSS | low polyreactivity |
| QVQLVESGGGLVQAGGSLRLSCAASGSTFVIYTMGWCRQAPGKERELVAAISWSGGITRYADSVKGRFTISRDNAKNTVYLQMNSLKPEDTAVYYCNASQWPSLFDYWGQGTQVTVSS | low polyreactivity |
| QVQLVESGGGLVQAGGSLRLSCAASGSTFVNYVMGWYRQAPGKERELVAAISRRGTSTRYADSVKGRFTISRDNAKNTVYLQMNSLKPEDTAVYYCAATRYVGVTGYGYWGQGTQVTVSS | high polyreactivity |
| QVQLVESGGGLVQAGGSLRLSCAASGSTFVPNAMGWYRQAPGKERELVAAISRSAGSTYYADSVKGRFTISRDNAKNTVYLQMNSLKPEDTAVYYCAAVSLTYIAYDYWGQGTQVTVSS | high polyreactivity |
| QVQLVESGGGLVQAGGSLRLSCAASGSTFVPYAMGWYRQAPGKERELVAAISQSGGSTYYADSVKGRYTISRDNAKNTVYLQMTSLKPEYTAVYYCNVDQFRYPEYDYWGQGTQVTVSS | high polyreactivity |
| QVQLVESGGGLVQAGGSLRLSCAASGSTFVPYTMGWYRQAPGKERELVAAISSGDSTYYADSVKGRFTISRDNAKNTVYLQMNSLKPEDTAVYYCAADYQWFWVWYGYWGQGTQVTVSS | high polyreactivity |
| QVQLVESGGGLVQAGGSLRLSCAASGSTFVPYTMGWYRQAPGKERELVAAMSGSGGTDYADSVKGRFTISRDNAKNTVYLQMNSLKPEDTAVYYCATDGLDFWFIYDYWGQGTQVTVSS | low polyreactivity |
| QVQLVESGGGLVQAGGSLRLSCAASGSTFVQNTMGWYRQAPGKERELVAAITRGGSTSYADSVKGRFTISRDNAKNTVYLQMNSLKPEDTAVYYCNAKSRSPTYRYRSWPYNYWGQGTQVTVSS | high polyreactivity |
| QVQLVESGGGLVQAGGSLRLSCAASGSTFVQYAMGWYRQAPGKERELVAAITRSGGSTYYADSVKGRFTISRDNAKNTVYLQMNSLKPEDTAVYYCAADFSSSYRAFNYWGQGTQLTVSS | high polyreactivity |
| QVQLVESGGGLVQAGGSLRLSCAASGSTFVRNAMGWYRQAPGKERELVAAITSSGGSTYYADSVKGRFTISRDNAKNTVYLQMNSLKPEDTAVYYCNAELGSDTANYDYWGQGTQVTVSS | low polyreactivity |
| QVQLVESGGGLVQAGGSLRLSCAASGSTFVRNAMGWYRQAPGKERELVAGISTGDNTYYADSVKWRFTISRDNAKNTVYLQMISLKPEDTAVYYCNATKEFSFGLDYWGQGTQVTVSS | low polyreactivity |
| QVQLVESGGGLVQAGGSLRLSCAASGSTFVRNAMGWYRQAPWKERELVAAIRWRSGSTYYADSVKGRFTISRDNAKNTVYLQMNSLKPEDPAVYYCAVDYNSFRYGPLGYWGQGTQVTVSS | high polyreactivity |
| QVQLVESGGGLVQAGGSLRLSCAASGSTFVRNAMGWYRQATGKERELVAAITTSGARTYYADSVKGRFTISRDNAKNTVYLQMNSLKPEDTAVYYCAAEYKGRTYRFDYWGQGTQVTVSS | low polyreactivity |
| QVQLVESGGGLVQAGGSLRLSCAASGSTFVRNDMGLYRQAPGKERELVAAITRGGRTYYADSVKGRFTISRDNAKNTVYLQMNSLKPEDTAVYYCAAEGTGYSVGWQYGYWVQGTQVTVSS | low polyreactivity |
| QVQLVESGGGLVQAGGSLRLSCAASGSTFVRNGMGWYRQSPGKVRELVASISGRGGSTYYADSVKGRFTISRDNAKNTVYLQMNSLKPEDTAVYYCAARKQRGGGPTFDYWGQGTQVTVSS | high polyreactivity |

| Sequence | polyreactivity (PSR sort gate) |
| --- | --- |
| QVQLVESGGGLVQAGGSLRLSCAASGSTFVRNVMGWYRQAPGKERELDAAITRSGDTTYYADSVKGRFTISRDNAKNTVYLQMNSLKPEDTAVYYCAKRTFVRRGSIYPIDDYWGQGTQVTVSS | low polyreactivity |
| QVQLVESGGGLVQAGGSLRLSCAASGSTFVRNVMGWYRQAPGKERELVAAITRSGDTTYYADSVKGRFTISRDNAKNTVYLQMNSLKPEDTAVYYCAKRTFVRRGSIYPIDDYWGQGTQVTVSS | low polyreactivity |
| QVQLVESGGGLVQAGGSLRLSCAASGSTFVRYAMGWYRQAPGKERELVAAIRGGGGTYYADSVKGRFTISRDNAKNTVYLQMNSLKPEDTAVYYCAADTYYYYWFAGYTEYDYWGQGTQVTVSS | low polyreactivity |
| QVQLVESGGGLVQAGGSLRLSCAASGSTFVRYAMGWYRQAPGKERELVAAISGGGSTSYADSVKGRFTISRDNAKNTVYLQMNSLKPEDTAVYFCAKAGYRSEFEYWGQGTQVTLSS | low polyreactivity |
| QVQLVESGGGLVQAGGSLRLSCAASGSTFVRYAMGWYRQAPGKERELVAAISRRGSSTYYADSVKGRFTISRDNAKNTVYLQMNSRKPEDTADYYCAVDYSPGFDDYDYWGQGTHVTVSS | high polyreactivity |
| QVQLVESGGGLVQAGGSLRLSCAASGSTFVRYAMGWYRQAPGKERELVASISSSGSTYYADSVKGRFTISRDNAKNTVYLQMNSLKPEDTAVYYCAKQYGGRYGYWGQGTQVTVSS | low polyreactivity |
| QVQLVESGGGLVQAGGSLRLSCAASGSTFVRYVMGWYRQAPGKERELVAAISEGGGSTYYADSVKGRFTISRDNAKNTVYLQMNSLKPEDTAVYYCAAGRSNSYSPRRRVTYGYNYWGQGTQVTVSS | high polyreactivity |
| QVQLVESGGGLVQAGGSLRLSCAASGSTFVRYVMGWYRQAPGKERELVAAISRRGGSTYYADSVKGRFTISRDNAKNTVYLQMNSLKPEDTAVYYCAARGTSRKYYYWGQGTQVTVSS | high polyreactivity |
| QVQLVESGGGLVQAGGSLRLSCAASGSTFVSNAMGWDRQAPGQEREVVAALSSGGSPYYADSVKGRFTISRDNAKNTVYLQMNRLKPEDTAVYYCNKRRGRKWPGNYSVVKLLMGYWGQGTQVTVSS | low polyreactivity |
| QVQLVESGGGLVQAGGSLRLSCAASGSTFVSNAMGWYRQAPGKERELVAAISSSGGRTSYADSVKGRFTISRDNAKNTVYLQMNSLKPEDTAVYYCAARFKSVDYVQYYYWGQGTQVTVSS | low polyreactivity |
| QVQLVESGGGLVQAGGSLRLSCAASGSTFVSNAMGWYRQAPGKERELVAAISTSGGSTYYADSVKGRFTISRDNAKKTVYLQMNSLKTEDTAVYFCAAVSPRRYRYDYWGQGTQVTVSS | low polyreactivity |
| QVQLVESGGGLVQAGGSLRLSCAASGSTFVSNAMGWYRQAPGKERELVAAITTGGSTYYADSVKGRFTISRDNAKNTVYLQMNSLKPEDTAVYYCAADSVLNWFWGYEYWGQGTQVTVSS | low polyreactivity |
| QVQLVESGGGLVQAGGSLRLSCAASGSTFVSYALGWYRQAPGKERDLVAAISRSGGSTYYADSVKGRFTISRDNAKNTVYVQMNRLKPEDTAVFYCAADCRGPSKRNRDYWGQGTEVTVSS | high polyreactivity |
| QVQLVESGGGLVQAGGSLRLSCAASGSTFVSYAMGGSRQAPGKERELVAAISRSGGSTYYADSVKGRFTISRDTAKNTVYLQMNSLKPEDTAGYYCAADGRGPSKRNRDYWGQGTQVTVSS | high polyreactivity |
| QVQLVESGGGLVQAGGSLRLSCAASGSTFVSYAMGWYRQAPGKERELVAVISYRGGGTYYADSVKGRFTISRDNAKNTVYLQMNSLKPEDTAVYYCNAELWVLVSSYSYHYDGFDYWGQGTQVTVSS | low polyreactivity |
| QVQLVESGGGLVQAGGSLRLSCAASGSTFVSYTMGWYRQAPGKERELVAAISYNGARTYYADSVKGRFTISRDNAKNTVYLQMISLKPEDTAVYDCARRYYSQYDYWGQGTQVTVSS | high polyreactivity |
| QVQLVESGGGLVQAGGSLRLSCAASGSTFVVNAMGWYSLAPGKERELVAAITQDGDGTYYADSVKGRFTISRDNAKNTVYLQMNSLKPEDTAVYYCAAYPFSGPYDEFDYWRQGTQVTVSS | low polyreactivity |
| QVQLVESGGGLVQAGGSLRLSCAASGSTFVVNDMGWYRQAPGKDRELVASITAGGSTYYADSVKGRFTISRDNAKNTVNLQMNSLKPEDTAVYYCAKVQDRAYLPHQRGRERDYDYWGQGTQVTVSS | low polyreactivity |
| QVQLVESGGGLVQAGGSLRLSCAASGSTFVVYAMGWYRQAPGKERELVARITLSDGSTNYADSVKGRFTISRDNAKNTVYLQMNSLKPEDTAVYYCAAEVVPFYYFWFDYWGQGTQVTVSS | low polyreactivity |
| QVQLVESGGGLVQAGGSLRLSCAASGSTFVWYAMGWYRQAPGKERELVASITSGGNTNYADSVKGRFTISRDNAKNTVYLQMNSLKPEDSAVYYCNAVRSQRSLSSRYYYWGQGTQVTVSS | low polyreactivity |
| QVQLVESGGGLVQAGGSLRLSCAASGSTFVYNAMGWYRQAPGKERELVAAITVSDGSTYYADSVKGRFTISRDNAKNTVYLQMNSLKPEDTAVYYCNADFPRKTRYEYWGQGTQVTVSS | low polyreactivity |
